# Results reported in US20050010028A1 (KEIO UNIVERSITY, published 2005).
# B1: Rhodamine green-labeled c-Fos (other, UniProt P01101 118-211, looked up)
# chain: GRAQSIGRRGKVEQLSPEEEEKRRIRRERNKMAAAKCRNRRRELTDTLQAETDQLEDEKSALQTEIANLLKEKEKLEFILAAHRPACKIPDDLG
# modifications: C-terminus joined through puromycin to a rhodamine green modifying agent that also carries biotin or iminobiotin (Modifying agent 22 or 23; which one in the FCCS sample is not stated)
# notes: also called Rh-Fos; rhodamine green-modified c-fos; not shown: T7 tag at the N-terminus; C-terminal polyhistidine tag
# Tests used:
# [1] = target: T1, Cy5-labeled c-Jun (mouse, UniProt P05627 216-318, C-terminus joined through puromycin to a Cy5 modifying agent that also carries biotin or iminobiotin (Modifying agents 24-26; Modifying agent 25 in FIGS. 14 and 15; the agent used in the FCCS sample …); experiment: fluorescence cross-correlation spectroscopy in solution, 10 nM each of the two labelled proteins and AP-1 double-stranded DNA
# T1 construct: also called Cy5-Jun; Cy5-modified c-Jun; not shown: T7 tag at the N-terminus; C-terminal polyhistidine tag
# Experimental: (§1) Intermolecular interactions were analyzed by fluorescence cross-correlation spectroscopy using fluorescence-labeled c-Fos and c-Jun as well as AP-1 sequence double-stranded DNA. DNA and the modified proteins (at a final concentration of 10 nM each) were mixed. 10 μl of this sample was applied to an 8-well glass chamber (Nunc), and fluorescence cross-correlations were measured by using a fluorescence correlation spectrometer, ConfoCor2 (Car1 Zeiss). […] Based on the above, it was confirmed that proteins labeled with fluorescence according to the present invention could be used to detect protein interactions by using a fluorescence cross-correlation spectroscopy and further could be utilized for convenient and quick measurement of dissociation constant.
# [2] = target: T2, Fos modified with TAMRA-dC-puromycin (Modifying agent 19) (mouse, UniProt P01101 118-211, C-terminus joined to TAMRA-dC-puromycin (Modifying agent 19)); experiment: protein microarray: STA-Fos on a biotin plate, labelled Fos in solution, fluorescence scan
# T2 construct: also called C-terminal fluorescence-labeled Fos; Fos protein having 12 His tags
# [3] = target: B1; experiment: fluorescence cross-correlation spectroscopy in solution, Cy5-Fos + Rh-Fos + AP-1 DNA
# Experimental: as §1
# T1 sequence (P05627 216-318): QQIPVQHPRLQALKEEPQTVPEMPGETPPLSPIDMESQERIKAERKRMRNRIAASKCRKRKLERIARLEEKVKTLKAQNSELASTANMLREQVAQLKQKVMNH
binder,measurement,setting,value
B1,Kd,[1],~10 nM
"streptavidin-fused Fos protein (other, UniProt P01101 118-211, looked up, From plasmid pSP6-STA-Fos (pET20b backbone), spotted as translation solution on a biotin-coated slide; also called STA-Fos; STA-Fos(F); not shown: T7 tag at the N-terminus of streptavidin; streptavidin, gene amplified from the Streptomyces avidinii genome) GRAQSIGRRGKVEQLSPEEEEKRRIRRERNKMAAAKCRNRRRELTDTLQAETDQLEDEKSALQTEIANLLKEKEKLEFILAAHRPACKIPDDLG",binding result,[2],no binding
"Cy5-labeled c-Fos (other, UniProt P01101 118-211, looked up, C-terminus joined through puromycin to a Cy5 modifying agent that also carries biotin or iminobiotin (Modifying agents 24-26; Modifying agent 25 in FIGS. 14 and 15; the agent used in the FCCS sample is not stated), also called Cy5-Fos; not shown: T7 tag at the N-terminus; C-terminal polyhistidine tag) GRAQSIGRRGKVEQLSPEEEEKRRIRRERNKMAAAKCRNRRRELTDTLQAETDQLEDEKSALQTEIANLLKEKEKLEFILAAHRPACKIPDDLG",binding result,[3],no binding (tested: 10 nM each)
